Results taken from the supplement of paper PMC10266784.

B1: library; numbered along this chain (parent)
chain: MAAAAAAAAEQQSSNGPVKKSMREKAVERRSVNKEHNSNFKAGYIPIDEDRLHKTGLRGRKGNLAICVIILLFILAVINLIITLVIWAVIRIGPNGCDSMEFHESGLLRFKQVSDMGVIHPLYKSTVGGRRNENLVITGNNQPIVFQQGTTKLSVENNKTSITSDIGMQFFDPRTQNILFSTDYETHEFHLPSGVKSLNVQKASTERITSNATSDLNIKVDGRAIVRGNEGVFIMGKTIEFHMGGNMELKAENSIILNGSVMVSTTRLPSSSSGDQLGSGDWVRYKLCMCADGTLFKVQVTSQNMGCQISDNPCGNTH

Variants of: B1
Test: SGCB cell-surface expression functional score (HA stain, bin4 vs bin1, normalised to synonymous) (log10 ratio); higher = more cell-surface SGCB (functional)
Method: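 Deep mutational scan of full-length human SGCB (YFP-SGCB-HA, NNN codon sublibraries A-F) delivered by lentivirus at low MOI into ADG-HEK293 cells stably expressing SGCA, SGCD and SGCG. YFP-positive cells were stained for surface HA on unpermeabilized cells and FACS-sorted into bins. The functional score is log10(frequency in high bin 4 / frequency in low bin 1), normalised per chunk so that synonymous variants have mean 0 and SD 0.5. Scores are the median over codons and over duplicate biological replicates; scores below -0.5 are called non-functional. Scale: negative means deleterious.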

SGCB cell-surface expression functional score (log10) of substitutions, site by site:
F40: C 0.25 | E 0.01 | L -0.13 | R -0.05 | S 0.16 | Y 0.49 | Q 0.03 | I 0.24 | T 0.19 | H -0.44 | A 0.18 | P -0.13 | G -0.49 | N -0.16 | V 0.27 | D 0.12 | W -0.21 | M -0.28 | K 0.55
A42: H -0.08 | W 0.29 | K 0.18 | R -0.08 | L -0.02 | C 0.21 | Y -0.17 | N -0.67 | V -0.08 | G 0.22 | Q -0.07 | D -0.28 | P 0.02 | F -0.42 | M 0.33 | S 0.1 | I -0.45 | E 0.71 | T 0.1
K41: Y -0.07 | I -0.28 | N 0.25 | C -0.2 | V 0.04 | R -0.25 | Q 0.4 | W 0.02 | F -0.47 | A 0.77 | H 0.22 | G -0.27 | P 0.21 | D -0.08 | L 0.1 | T 0.26 | M 0.55 | S 0.28 | E 0.61
G43: W 0.34 | F -0.52 | C -0.02 | I -0.07 | Y -0.59 | R 0.51 | A 0.25 | Q 0.32 | H 0.33 | P 0.76 | K 0.2 | T 0.05 | S 0.34 | D 0.22 | M -0.74 | N 0.18 | V 0.07 | E 0.18 | L -0.21
I45: G -0.04 | Q -0.67 | P 0.52 | V 0.48 | W 0.91 | E 0.23 | K -0.41 | H 0.03 | M 0.43 | Y 0.68 | D 0.9 | T 0.15 | R -0.17 | C -0.09 | L -0.03 | F -0.02 | N 0.15 | S -0.08 | A 0.33
P46: T 0.21 | S 0.15 | W -0.33 | Y 0.03 | V -0.23 | M 0 | N 0.18 | C 0.44 | L -0.2 | G 0.65 | H 0.31 | K -0.07 | E 0.1 | F 0.22 | D -0.14 | R -0.18 | A -0.03 | Q 0.28 | I 0.27
I47: M 0.47 | H 0.63 | G 0.36 | Q 0.68 | C 0.31 | T 0.58 | F -0.49 | P 0.47 | W -0.62 | V 0.12 | Y 0.65 | L -0.14 | K 0.52 | A 0.17 | R -0.19 | E 0.72 | D 0.59 | S 0.29 | N 0.73
D50: M 0.2 | P -0.16 | K 0.54 | R 0.28 | A 0.14 | S 0.26 | F 0.27 | G 0.3 | V -0.03 | C 0 | L 0.12 | N 0.29 | Y 0 | T 0.44 | E 0.3 | Q 0.04 | H 0.24 | W -0.47 | I 0.07
D48: F 0.37 | R -0.06 | C 0.13 | E -0.17 | K -0.09 | M 0.77 | W 0.22 | H 0.33 | I 0.19 | Y 0.4 | N 0.13 | S 0.3 | G -0.07 | Q -0.36 | A 0.6 | T -0.04 | L 0.18 | P 0.18 | V 0.07
S38: G 0.07 | P -0.2 | T -0.04 | L -0.26 | E 0.31 | I -0.09 | K 0.36 | M -0.54 | W -0.17 | R -0.01 | N 0.37 | Q -0.18 | H 0.06 | F -0.14 | V -0.31 | Y -0.07
L52: I -0.3 | E 0.55 | R 0.05 | V 0.17 | N 0.27 | H 0.01 | G 0.29 | D 0.39 | C 0.09 | M 0.34 | S -0.1 | F 0.04 | P 0.32 | K -0.26 | Q 0.35 | T 0.42 | Y 0.25 | W -0.3 | A 0.22
Y44: W 0.07 | S 0.14 | R 0.08 | I 0.42 | A 0.04 | E 0.75 | T 0.39 | C 0.8 | V 0.64 | K 0.04 | F 0.02 | D 0.53 | N -0.24 | Q 0.8 | H 0.01 | M 0.39 | L 0.55 | G 0.59 | P 0.61
K54: A 0.23 | I 0.01 | F -0.13 | E 0.02 | P -0.04 | Y 0.29 | G 0.21 | L 0.21 | Q -0.58 | T 0.27 | H -0.42 | M -0.19 | W 0.69 | R 0.2 | C 0.29 | S 0.14 | V 0.08 | N 0.23 | D -0.71
R51: H 0 | Q 0.54 | P 0.04 | C -0.24 | L 0.47 | M -0.39 | V 0.39 | T 0.01 | K 0.63 | F 0.49 | A 0.1 | E 0.04 | G -0.17 | I 0.36 | S 0.04 | N 0.2 | Y 0.17 | D -0.06 | W 0.83
E49: Q -0.19 | C 0.3 | W 0.56 | N 0.48 | L -0.04 | F 0.11 | K 0.42 | Y 0.09 | A 0.29 | G 0.17 | V 0.12 | R 0.35 | M 0.12 | H -0.23 | P 0.54 | I 0.51 | S 0.15 | D 0.02 | T 0.27
T55: I 0.07 | L 0.08 | E -0.18 | F 0.18 | P 0.19 | D 0.39 | H 0.01 | Q -0.62 | M 0.6 | A -0.43 | C 0.27 | K -0.06 | G 0.16 | N 0.75
H53: T 0.14 | S -0.22 | L -0.05 | P 0.19 | A 0.38 | F -0.19 | V 0.1 | Q 0.39 | C -0.27 | R 0.29 | G 0.41 | W -0.6 | E -0.28 | D -0.16 | N 0.08 | K -0.51 | Y 0.27 | I 0.12 | M 0.08
N39: G 0.13 | K 0.08 | I -0.18 | L -0.02 | W -0.81 | M -0.61 | R -0.29 | D 0.41 | S 0.02 | Y -0.08 | H -0.1 | C 0.2 | A -0.05 | Q 0.07 | T -0.1 | V 0.44 | F -0.12 | P -0.17 | E 0.54
